The supplement of paper PMC10567573
± gives the standard deviation.

Experiment: protein stability index of a GFP-peptide fusion (GPS, HEK-293T) (PSI 1-6); higher = more stable
Details: c terminus: a fixed tail appended
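Further: 24-mer peptide tiles fused after GFP, lentivirally expressed, FACS-sorted into six equal bins by GFP/DsRed ratio, decoded by Illumina sequencing, PSI is the read-weighted mean bin number.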

Sequence | protein stability index (treatment: DMSO) | protein stability index (treatment: MLN4924 1 uM, 8 h)
RQHIPDTYLCERCQPRNLDKERAV [KMT2E] | 2.81 ± 0.47 | 3.35 ± 0.15
FKHTLSISRALLSDVVPEKERPLV [MFSD9] | 3.04 ± 0.12 | 3.24 ± 0.21
NSISSDKEATVPCTEILTEKKDTI [MIA2] | 5.29 ± 0.28 | 5.06 ± 0.21
GFIRHTVNKITFSEQCYYIFGDLC [DVL3] | 3.11 ± 0.86 | 2.64 ± 0.16
KCSDCGKAFLTKTMLIVHHRTHTG [ZNF649] | 2.84 ± 0.27 | 3.05 ± 0.45
FDLAKGNAGKVNLPKELPADAVNL [PLAGL1] | 4.41 ± 0.21 | 4.5 ± 0.29
TLVDESDLYNWEVAIFGPPNTLYE [UBE2R2] | 2.71 ± 0.17 | 2.81 ± 0.17
RELDAISTNEEEKEENEAESDVKH [PRIM1] | 5.57 ± 0.17 | 5.62 ± 0.24
GAHEQVDFKDFYPAIADLFAESLQ [P3H4] | 2.84 ± 0.51 | 3.08 ± 0.53
AEQRGDNALKDARAKLDELEGALH [KRT71] | 5.16 ± 0.2 | 5.37 ± 0.29
KPFVSVFRHLRLQYIISDLASARI [GMCL1] | 3.07 ± 0.69 | 2.78 ± 0.85
PGCGYFCTAGNFMECQPESSISHR [EHMT1] | 2.64 ± 0.15 | 2.61 ± 0.53
MTTPAGSGSGFGSVSWWGLSPALD [DNAAF3] | 2.47 ± 0.29 | 2.75 ± 0.36
TCSFNPGVIVANMTEWKHQRITKQ [GLT8D2] | 3.12 ± 0.11 | 3.06 ± 0.15
TDATAFWWGEWTKWTACSRSCGGG [ADAMTSL2] | 2.24 ± 0.68 | 2.59 ± 0.6
RRRRMETIVFLDKEVFASRISNPS [PCMTD2] | 2.57 ± 0.26 | 2.77 ± 0.38
EELANLRASQREYEELRNSERAEV [RSPH3] | 5.21 ± 0.4 | 5.18 ± 0.31
FLFNSELLSDVRFVLGKGRGAAAA [BTBD1] | 2.12 ± 0.33 | 2.33 ± 0.34
FMLMLLVLGIQVKCFHEIITIGYR [CDS1] | 3.31 ± 0.45 | 3.3 ± 0.41
AVKLYNSGDFRSSTEDMERALSEY [P3H4] | 4.57 ± 0.4 | 4.14 ± 0.26
GLLEAPGLQPVVFVLFLFAYLVTV [OR3A1] | 2.53 ± 0.98 | 2.61 ± 0.8
IKMMQAVRQAFQDQDDRRTWDGRP [GFOD1] | 3.21 ± 0.26 | 3.6 ± 0.19
SMKHTATARFQRNHRLISEILSES [SMARCE1] | 2.95 ± 0.12 | 3.24 ± 0.5

Sequence | protein stability index (treatment: DMSO) | protein stability index (treatment: MLN4924 1 uM, 8 h)
IAGNKCDLIDVREVMERDAKDYAD [RAB22A] | 4.98 ± 0.22 | 5.06 ± 0.11
VQSYMEHYCNSSTDRRVLLMFLDI [SPACA9] | 2.78 ± 0.38 | 2.71 ± 0.56
PGFLSTAEEETLSRELEPELRRRR [ALKBH7] | 5.12 ± 0.23 | 5.28 ± 0.3
LNYLRDGSVPLPESTRELGELLGE [KCTD13] | 4.5 ± 0.21 | 4.64 ± 0.24
PGEKSHWGEGLHQLREALKILAER [EMID1] |  | 2.13 ± 0.33
PRPQSEESWDEEDKRNYPSLELDK [CHGB] | 5.52 ± 0.25 | 5.44 ± 0.25
KKEQRRLGIPKNPWLWSEQQVCQW [ETS2] | 2.12 ± 0.18 | 2.43 ± 0.43
ADISMIGQFGVGFYSAYLVAEKVV [HSP90AB1] |  | 2.86 ± 0.44
LYLRVELSDVQNPAISITENVLHF [HACD3] | 2.82 ± 0.57 | 2.88 ± 0.64
PVCSALLDPVLQAPGTGPAQTELL [FANCE] | 4.2 ± 0.12 | 4.37 ± 0.12
HCTGNEATLAACTSNGWGVTDCKH [LOXL2] | 3.98 ± 0.24 | 4.21 ± 0.28
MAEAAALVWIRGPGFGCKAVRCAS [SDE2] | 2.45 ± 0.47 | 2.35 ± 0.53
LEFLLALYFLFADAMQLNDKWQGL [CMTM3] | 2.77 ± 0.45 | 2.8 ± 0.93
TDGLQEVPLCSCRMETPKSREITT [EHMT1] | 3.21 ± 0.25 | 3.07 ± 0.26
SRQGSAEALRALQEGLWLDRGTRV [PKD2L1] | 3.6 ± 0.37 | 3.28 ± 0.27
ACLVSCFQQLMVETCSCGYYLHPL [SCNN1D] | 2.91 ± 0.17 | 3.21 ± 0.19
GRLGRRDEDAGLPRPVQLDETHPY [NEK8] | 4.46 ± 0.066 | 4.7 ± 0.1
NLMSLLMAVRPSLPESGLLSVLQI [FANCE] | 3.09 ± 0.51 | 2.78 ± 0.55
RRGQEPLSALLQFGVTYLEDYSAE [BCL2L13] | 3.11 ± 0.3 | 3.17 ± 0.43
RLLSDATVEKDESHAGKVVLRSWY [FAM50A] | 3.02 ± 0.11 | 3.26 ± 0.12
LDRFLSLEPVKKSRLQLLGATCMF [CCND1] | 2.42 ± 0.36 | 2.39 ± 0.14
YDPKENKWTRVASMSTRRLGVAVA [KLHL20] | 2.29 ± 0.27 | 2.38 ± 0.28
ISVEGINHDIRTANDGDYWRLLNP [CPXM2] | 2.64 ± 0.44 | 2.7 ± 0.44

Sequence | protein stability index (treatment: DMSO) | protein stability index (treatment: MLN4924 1 uM, 8 h)
TAGDRLTEFRKGAQSLPGPCAAAR [IRX6] | 4.01 ± 0.18 | 4.17 ± 0.58
VTGETRVLSSTTLLPRQPLPLGIK [PALM] | 3.66 ± 0.35 | 3.63 ± 0.22
IPLYPLGCLAEAVSVIQSIPIFNE [HACD3] | 2.7 ± 0.47 | 2.97 ± 0.81
MQCLISNVEAQLSEIRCDLERQNQ [KRT36] | 3.53 ± 0.11 | 3.32 ± 0.22
GKQAPRKKAQGKTQQNRKLTDFYP [KMT5A] | 3.64 ± 0.42 | 4.21 ± 0.41
LGDMQTAREGAGLVVASGVIYCLG [KLHL12] | 2.47 ± 0.45 | 2.29 ± 0.8
TSDGYTALHLAARNGHLATVKLLV [RIPK4] | 2.35 ± 0.57 | 2.25 ± 0.33
RRKEYDALKAAKREQEKKPKKEAN [LRRC59] | 5.25 ± 0.15 | 5.17 ± 0.22
QLKIRKSNQIPTEVRSKAEEVVSF [FUNDC2] | 3.9 ± 0.45 | 3.88 ± 0.25
TLGEVPAAESPDPPQSPQGASSLP [MAGEA3] | 5.5 ± 0.22 | 5.37 ± 0.1
VTRQPRNLQDLCRIKIRQCIGLQN [ASB7] | 3.4 ± 0.56 | 3.35 ± 0.39
DCRYPYEYEGGHIKTAVNLPLERD [CDC25B] | 4.13 ± 0.23 | 4.14 ± 0.63
ALCLEVRPTYFEMKNEKLLSKASE [RNF180] | 3.51 ± 0.21 | 3.67 ± 0.4
METSASSSQPQDNSQVHRETEDVD [TMEM40] | 5.54 ± 0.25 | 5.56 ± 0.32
SREFFNRRGELRHITKLKPWSLFD [SRPK2] | 2.56 ± 0.07 | 2.9 ± 0.32
QKIQFKRETASLKLLPHQPRIVEM [PDZK1] | 2.54 ± 0.39 | 
FNIFDWLGRSLTAVFMWPGKDSRW [SLC29A1] | 2.45 ± 0.79 | 2.63 ± 0.5
YNRGEHPIFVNSPTLDAPGGRALV [SMAD6] | 3.13 ± 0.35 | 3.25 ± 0.34
NKQTLSSGEKYDPDANTWTALPPM [GAN] | 4.07 ± 0.39 | 4.03 ± 0.1
PGGLTLEEHSLEQVQSMVVGEVLK [SPDEF] | 3.34 ± 0.28 | 3.53 ± 0.38
PRAGKEESGVSVSNSQPTNESHSI [SLC29A1] | 5.33 ± 0.25 | 5.26 ± 0.27
PHKGLNLHPLLSGRLGRWLRSTRF [PCDHGC5] | 2.35 ± 0.23 | 2.13 ± 0.28
SSSGYSSAEINQDLNIQLLKDGYR [FAM219A] | 3.67 ± 0.15 | 3.85 ± 0.22

Sequence | protein stability index (treatment: DMSO) | protein stability index (treatment: MLN4924 1 uM, 8 h)
NLNREEKIIREIDFYREDEDEEEE [TRIM55] | 5.37 ± 0.15 | 5.3 ± 0.32
VGELLPCKICGRTFFPVALKKHGP [ZC2HC1A] | 2.84 ± 0.51 | 2.57 ± 0.19
LRVLGSMCQRLRSMQYNGSYFDRG [DFFB] | 2.14 ± 0.29 | 2.23 ± 0.17
LEVPKPGQPSEPEHGPSPGQDTFC [CHIT1] | 5.22 ± 0.17 | 5.23 ± 0.19
GIETLESVPIIGGFWETIFGNRIK [PHTF1] | 2.67 ± 0.41 | 2.81 ± 0.18
YSALREESAKDWETSPLPGMLAPA [PPFIA4] | 4.26 ± 0.23 | 4.04 ± 0.21
SLTNDWEDHLAVKHFSVEGQLEFR [HSP90AB1] | 3.49 ± 0.23 | 
SEVSCKKRDDYLEWPEYFMAVAFL [DCTD] | 2.15 ± 0.48 | 2.16 ± 0.26
RLVSSPCCIVTSTYGWTANMERIM [HSP90AB1] | 2.86 ± 0.68 | 2.35 ± 0.33
RQVVDILWSDPMAQEGCKANTIRG [PPEF2] | 3.14 ± 0.31 | 3.55 ± 0.38
ACDLQPCPTEPPDDSCQDQPGTNC [ADAMTSL2] | 5.49 ± 0.34 | 5.51 ± 0.39
MPSWASARDRQPSDFKTDKEGGQA [ELOA2] | 5.14 ± 0.43 | 5.2 ± 0.22
QLTEKLARVNENLARKIASRNEFD [SSNA1] | 2.85 ± 0.18 | 3.24 ± 0.39
AVGNSSGSGQNEESPRKRKKATEA [FBXO28] | 4.95 ± 0.34 | 5.29 ± 0.27
TGERPHQCIECGKSFNRHCNLIRH [ZSCAN9] | 3.13 ± 0.17 | 3.35 ± 0.38
LEGALHQAKEELARMLREYQELMS [KRT71] | 2.98 ± 0.3 | 3.48 ± 0.46
REIEELLAEAKYYLVQGLVEECQA [KCTD10] | 2.02 ± 0.34 | 2.16 ± 0.25
HLEIDDMYTPAYGDFDFDEVKFPN [MYORG] | 4.49 ± 0.12 | 4.26 ± 0.19
RQVQSLMVHQRKLEAELLQIEERH [SMARCE1] | 4 ± 0.12 | 4.23 ± 0.17
PFSSSSPENVEDSGLDSPSHAAPG [FCHO1] | 5.5 ± 0.19 | 5.4 ± 0.39
FGLTYRDAENQKNWLDPAKEIKKQ [EPB41L3] | 3.68 ± 0.082 | 4.15 ± 0.089
